Entries after “also recorded” stand apart in the source; their conditions may differ.
How the values were obtained:
CRT = assay: Fluorescence detection of cell surface CRT (cytofluorometry); details: for time after treatment at which CRT exposure is detectable: intact cells; for reversal of siRNA-induced defect at the level of CRT expression: CRT-specific or ERP57 specific siRNA, recombinant protein added
Experimental: CT26 cells (on a glass slide or in 12-well plates) were first washed with FACS buffer (1×PBS, 5% fetus bovine serum, and 0.1% sodium azide) and then incubated with rabbit anti-mouse CRT antibody (1:100, Stressgen), or rabbit anti-mouse ERP57 antibody (abcam) in FACS buffer at 4° C. for 30 min. […] After washing three times with FACS buffer, surface CRT and ERP57 was detected by cytofluorometric analysis on a FACS Vantage. In some experiments, cells were fixed with 4% paraformaldehyde, counterstained with Hoechst (2 μM; Sigma), followed by fluorescence microscopic assessment.
Trypsinized CT26 cells were enucleated as described. Briefly, cells were treated in 2 ml of complete RPMI medium containing cytochalasin B (10 μg/ml; Sigma) and DNase I (80 U/ml; Sigma). […] Gradients containing cell suspensions were centrifugated in a prewarmed SW41 Beckman rotor at 25 000 rpm for 20 minutes at 30° C. […] Then the cell surface CRT was detected (see materials and methods) and the viability was determined by with propidium iodine staining (2 μg/ml, Sigma) for 5 min followed by cytofluorometric analysis.

ERP57 [1] = assay: Fluorescence detection of cell surface ERP57 (cytofluorometry); type: cell-based, mouse
Experimental: CT26 cells (on a glass slide or in 12-well plates) were first washed with FACS buffer (1×PBS, 5% fetus bovine serum, and 0.1% sodium azide) and then incubated with rabbit anti-mouse CRT antibody (1:100, Stressgen), or rabbit anti-mouse ERP57 antibody (abcam) in FACS buffer at 4° C. for 30 min. Cells reacted with anti-rabbit IgG (H+L) Alexa fluor 488-conjugates (1:500) in FACS buffer at 4° C. for 30 min. After washing three times with FACS buffer, surface CRT and ERP57 was detected by cytofluorometric analysis on a FACS Vantage. In some experiments, cells were fixed with 4% paraformaldehyde, counterstained with Hoechst (2 μM; Sigma), followed by fluorescence microscopic assessment.

ERP57 [2] = assay: as above; type: cell-based, mouse; details: murine MCA205, B16F10, J558; human HeLa, A549, HCT116
CT26 tumor cells [3] = assay: Anti-tumor vaccination: treated dying CT26 cells injected s.c., challenge with live tumor cells in opposite flank; type: in vivo, BALB/c mice; details: for restoration of immunogenicity defect by recombinant protein, anti-tumor vaccination: siRNA-transfected, mitoxantrone-treated CT26 cells
CT26 cells [4] = assay: Phagocytosis assay: uptake of treated tumor cells by dendritic cells; type: cell-based, mouse; details: for reversal of siRNA-induced defect at the level of phagocytosis by DC: CRT-specific or ERP57 specific siRNA, recombinant protein added
Experimental: BM cells were flushed from the tibias and femurs of BALB/c mice with culture medium composed of RPMA 1640 medium supplemented with 10% heat-inactivated FBS, sodium pyruvate, […] 2-ME. 10 mM HEPES (pH 7.4), and penicillin/streptomycin. After one centrifugation, BM cells were resuspended in Tris-ammonium chloride for 2 min to lyse RBC. After one more centrifugation, BM cells (1×10^6 cells/ml) were cultured in medium supplemented with 100 ng/ml recombinant mouse FLT3 ligand in 6-well plates. […] In 12-well plates, […] adherent CT26 cells were labeled with Celltracker Orange and then incubated with drugs. […] Alternatively CT26 cells were coated with 3 μg/10^6 cells of rCRT on ice for 30 minutes and washed twice prior to addition to dendritic cells. Cells were then harvested, washed three times with medium supplemented with FBS and cocultured with immature DC for 2 hours at a ratio of 1:1 and 1:5. At the end of the incubation, cells were harvested with Versene, pooled with non-adherent cells present in the supernatant, washed and stained with CD11c-FITC antibody. Phagocytosis was assessed by FACS analysis of double positive cells. Phagocytic indexes refer to the ratio between values obtained at […] of co-incubation between DC and tumor cells. Trypsinized CT26 cells were enucleated as described. Briefly, cells were treated in 2 ml of complete RPMI medium containing cytochalasin B (10 μg/ml; Sigma) and DNase I (80 U/ml; Sigma). Cell suspension was adjusted to a final concentration of 5×10^6/ml and incubated at 37° C. for 45 minutes before being layered onto a previously prepared discontinuous Ficoll density gradient (3 ml of 100%, in 1 ml of 90% and 3 ml of 55% Ficoll Paque layer containing 5 μg/ml cytochalasin B and 40 U/ml DNase I; gradients were prepared in ultracentrifuge tubes and pre-equilibrated at 37° C. in a CO2 incubator overnight). Gradients containing cell suspensions were centrifugated in a prewarmed SW41 Beckman rotor at 25 000 rpm for 20 minutes at 30° C. The cytoplasts-enriched fraction was collected from the interface between 90 and 100% Ficoll layers, washed in complete RPMI 1640 medium, and incubated at 37° C. The cells were incubated with mitoxantrone (MTX), calyculin (CA), salubrinal (Sal) and toutomycin (TA) for the period of time indicated in the experiment. […] Alternatively cythoplasts were cocultured with immature DC for 2 hours at a ratio of 1:1 and 1:5. At the end of the incubation, cells were harvested with versene, pooled with non-adherent cells present in the supernatant, washed and stained with CD11c-FITC antibody. Phagocytosis was assessed by FACS analysis of double positive cells.

CT26 tumors = assay: Treatment of established CT26 tumors by single intratumoral injection; type: in vivo, BALB/c mice; details: for therapeutic effect of single intratumoral injection: agent alone
Experimental: (§1) All animals were maintained in specific pathogen-free conditions and all experiments followed the FELASA guidelines. 3×10^6 treated CT26 cells were inoculated s.c. in […] of PBS into BALB/c six-week-old female mice, into the lower flank, while 5×10^5 untreated control cells were inoculated into the contralateral flank. For the tumorigenicity assay, 3×10^6 treated or untreated CT26 cells were injected s.c. into nu/nu mice. To assess the specificity of the immune response against CT26, injections of either 5×10^5 or 5×10^6 of CT26 were made (for the mice immunized in a standard protocol or vaccination protocol, respectively). Tumors were evaluated weekly, using a caliper. In a series of experiments, BALB/c (wild type or nu/nu) carrying palpable CT26 tumors (implanted 14 days before for wild type or 7 days before for nu/nu mice by injection of […] tumor cells) received a single intratumoral injection of […] PBS containing the same concentration of anti-cancer agents and PP1/GADD34 inhibitors as those used in vitro, as well as rCRT ([…]). For the assessment of local immune response, 3×10^5 cells were injected in 50 μl into the footpad of mice. Five days later, mice were sacrificed and the draining lymph nodes were harvested. 1×10^5 lymph node cells were cultured for 4 days alone or with 1×10^4 CT26 cells killed by a freeze-thaw cycle in 200 μl in round-bottom 96-well plates. IFN-γ was determined by ELISA.

CT26 cells [5] = test system: CT26 cells
sperm-egg fusion = assay: Sperm-egg fusion assay; type: cell-based, ICR mice
Experimental: Gamete Isolation. Using mature, cumulus-free oocytes from superovulated 6-week-old to 8-week-old ICR female mice, eggs were denuded from the zona pellucida and loaded with DAPI. Sperms were collected from each cauda epididymis and vas deferens of 10- to 12-week-old ICR males. […] […] All the experiments were performed according to the animal care and use protocols approved by French and European Union Ethical Committee.
Sperm-Egg Fusion Assay. […] After the incubation, the sperms or eggs were washed. Sperms were added at a final concentration of 1-3×10^5 sperm/ml and coincubated with gamete for 40 min at 37° C. and 5% CO2. The oocytes were then washed to release loosely bound sperms and mounted onto microscope slides. Alternatively, non-capacitated sperms were incubated with recombinant CRT or ERP57, 3 μg/10^5 sperm, for 30 min 37° C. and 5% CO2, followed by three washes with PBS. Sperm-egg fusion scored by the fluorescent labeling of sperm nuclei by DAPI transferred from preloaded eggs. Fertilization rote (FR) is the percentage of oocytes with at least one fused sperm, and Fertilization index (FI) is the mean number of fused sperm per egg. Both the FR and FI are expressed of the control treatment.

CT26 tumor cells [6] = assay: Local immune response: tumor cells injected into footpad, IFN-γ secretion by draining lymph node cells (ELISA); type: in vivo, Balb/c mice; details: for restoration of immunogenicity defect by recombinant protein, interferon-γ production: siRNA-transfected, mitoxantrone-treated CT26 cells
Experimental: as §1

DC = DC maturation ex vivo; type: cell-based; details: protein alone, large range of concentrations
[7] = immunocompetent BALB/c mice, 14-day-old CT26 tumors

O=C1c2c(O)ccc(O)c2C(=O)c2c(NCCNCCO)ccc(NCCNCCO)c21 [mitoxantrone]
time to CRT exposure in enucleated cells (CRT; cytoplasts): ≤ 1 h | time after treatment at which CRT exposure is detectable (CRT): 1 h | CRT exposure on panel of tumor cell lines (CRT; murine MCA205, B16F10, J558, human HeLa, A549, HCT116): induced | time to ERP57 exposure in enucleated cells (ERP57 [1]; cytoplasts): ≤ 1 h | ERP57 exposure on panel of tumor cell lines (ERP57 [2]): induced | immunogenicity of cell death (protection against tumor growth on rechallenge) (CT26 tumor cells [3]; CT26 cells treated in vitro with agent alone, immunocompetent BALB/c mice): elicited immunogenic cell death | time after treatment at which tumor cells are phagocytosed by DC (CT26 cells [4]; before apoptotic changes): within a few hours after treatment | uptake of treated cytoplasts by DC (CT26 cells [4]; enucleated cells (cytoplasts)): as efficiently as intact cells | therapeutic effect of single intratumoral injection (CT26 tumors; [7]): permanent regression in some but not all cases | therapeutic effect of single intratumoral injection (CT26 tumors; immunodeficient nu/nu mice): no cure

peptide inhibitor: protein transduction domain-5 (RRQRRTSKLMKR) fused to the inhibitory sequence of the complex PP1/GADD34 (LKARKVRFSEKV) (RRQRRTSKLMKRLKARKVRFSEKV)
CRT exposure at cell surface (CRT; CT26 cells, agent alone): increase greatly and quickly | time after treatment at which CRT exposure is detectable (CRT): 1 h | toxic effect (CT26 cells [5]; 24 h of treatment): no toxic effect | percentage of dead cells positive for DAPI and Annexin V (CT26 cells [5]; after 24 h of treatment): did not increase the percentage of dead cells | ERP57 exposure at cell surface (ERP57 [1]; CT26 cells, agent alone): increase greatly and quickly | time after treatment at which ERP57 exposure is detectable (ERP57 [1]; intact cells): 1 h

B1: rCRT: recombinant CRT (calreticulin) protein, which binds to the surface of the cells (protein)
chain: DPAIYFKEQFLDGDAWTNRWVESKHKSDFGKFVLSSGKFYGDLEKDKGLQTSQDARFYALSAKFEPFSNKGQTLVVQFTVKHEQNIDCGGGYVKLFPSGLDQKDMHGDSEYNIMFGPDICGPGTKKVHVIFNYKGKNVLINKDIRCKDDEFTHLYTLIVRPDNTYEVKIDNSQVESGSLEDDWDFLPPKKIKDPDAAKPEDWDERAKIDDPTDSKPEDWDKPEHIPDPDAKKPEDWDEEMDGEWEPPVIQNPEYKGEWKPRQIDNPDYKGTWIHPEIDNPEYSPDANIYAYDSFAVLGLDLWQVKSGTIFDNFLITNDEAYAEEFGNETWGVTKAAEKQMKDKQDEEQRLKEEEEDKKRKEEEEAEDKEDDDDRDEDEDEEDEKEEDEEESPGQAKDEL
reversal of siRNA-induced defect at the level of CRT expression (CRT): could reverse the defect | sperm-egg fusion, recombinant protein absorbed to sperm without prior capacitation (sperm-egg fusion; non-capacitated sperm): restores very efficiently the fusion | immunogenicity of mitomycin C-treated cells with protein absorbed to plasma membrane (CT26 tumor cells [6]; mitomycin C-treated cells): greatly enhanced the immunogenicity | restoration of immunogenicity defect by recombinant protein, interferon-γ production (CT26 tumor cells [6]): this defect was restored | anti-tumor immune response to etoposide-treated cells coated with protein (CT26 tumor cells [3]; etoposide-treated cells): elicited a vigorous anti-tumor immune response | anti-cancer immune response, protein absorbed to cells without prior cell death inducer (CT26 tumor cells [3]; live cells, no cell death inducer): failed to elicit an anti-cancer immune response | restoration of immunogenicity defect by recombinant protein, anti-tumor vaccination (CT26 tumor cells [3]): this defect was restored; also recorded: restores the protection against tumors | reversal of siRNA-induced defect at the level of phagocytosis by DC (CT26 cells [4]): could reverse the defect; also recorded: restores phagocytosis | therapeutic effect of single intratumoral injection (CT26 tumors; [7]): no major therapeutic effect | therapeutic effect of single intratumoral injection (CT26 tumors; immunodeficient nu/nu mice): no major therapeutic effect | effect of injection into a distant site on antitumoral effects of intratumorally injected etoposide (CT26 tumors; contralateral subcutaneous injection): did not ameliorate the antitumoral effects | therapeutic effect of intratumoral injection combined with etoposide or mitomycin C (CT26 tumors; immunocompetent animals): able to cause tumor regression | therapeutic effect of intratumoral injection combined with etoposide or mitomycin C (CT26 tumors; immunodeficient (athymic) animals): not in immunodeficient | DC maturation ex vivo (DC): could not promote DC maturation

B2: rERP57: recombinant ERP57 protein (protein)
chain: SDVLELTDENFESRVSDTGSAGLMLVEFFAPWCGHCKRLAPEYEAAATRLKGIVPLAKVDCTANTNTCNKYGVSGYPTLKIFRDGEEAGAYDGPRTADGIVSHLKKQAGPASVPLRTEEEFKKFISDKDASVVGFFRDLFSDGHSEFLKAASNLRDNYRFAHTNIESLVKEYDDNGEGITIFRPLHLANKFEDKTVAYTEKKMTSGKIKKFIQDSIFGLCPHMTEDNKDLIQGKDLLTAYYDVDYEKNAKGSNYWRNRVMMVAKKFLDAGHKLNFAVASRKTFSHELSDFGLESTTGEVPVVAIRTAKGEKFVMQEEFSRDGKALEQFLQEYFDGNLKRYLKSEPIPESNEGPVKVVVAENFDDIVNEEDKDVLIEFYAPWCGHCKNLEPKYKELGEKLSKDPNIVIAKMDATANDVPSPYEVKGFPTIYFSPANKKLTPKKYEGGRELNDFISYLQREATNPPIIQEEKPKKKKKAQEDL
reversal of siRNA-induced defect at the level of CRT expression (CRT): did not reverse the defect | fertilization rate and index (sperm-egg fusion; non-capacitated sperm with recombinant protein): no significant effect | restoration of immunogenicity defect by recombinant protein, interferon-γ production (CT26 tumor cells [6]): not restored | restoration of immunogenicity defect by recombinant protein, interferon-γ production (CT26 tumor cells [6]; listed as recombinant ERP57): did not restore | restoration of immunogenicity defect by recombinant protein, anti-tumor vaccination (CT26 tumor cells [3]): not restored | restoration of immunogenicity defect by recombinant protein, anti-tumor vaccination (CT26 tumor cells [3]; listed as recombinant ERP57): did not restore the protection against tumors | reversal of siRNA-induced defect at the level of phagocytosis by DC (CT26 cells [4]): did not reverse the defect | DC maturation ex vivo (DC): could not promote DC maturation

Reference: patent US20090004211A1, “METHOD FOR EFFECTING LOCALIZED, NON-SYSTEMIC AND SYSTEMIC, IMMUNOGENIC TREATMENT OF CANCER USING ERP57 TRANSLOCATION” (priority 2006, published 2009)
